Data: patent US20120082682A1 (GlaxoSmithKline, published 2012)

T1: human IL-4 (recombinant E. coli-expressed) (human, UniProt P05112 25-153)
T1 sequence (looked up): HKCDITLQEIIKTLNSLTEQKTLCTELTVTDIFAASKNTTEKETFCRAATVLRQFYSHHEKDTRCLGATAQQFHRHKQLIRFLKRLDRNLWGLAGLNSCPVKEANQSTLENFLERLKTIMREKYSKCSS


Biological target: T1, human IL-4 (recombinant E. …)
Assay: Biacore T100 SPR, Protein A capture (CM5), human IL4 analyte, 1:1 fit
Procedure: Protein A was immobilised on a CM5 chip by primary amine coupling; this surface was used as a capture surface for the antibody molecules to be tested.
All binding curves were double referenced with a 0 nM injection (i.e. buffer alone). Regeneration of the Protein A surface was with 50 mM NaOH. The assay was run at 25° C. using HBS-EP as running buffer. The data was fitted to 1:1 model inherent to the Biacore T100 analysis software.

Row | Binder | Kd [nM] | koff [s⁻¹] | kon [M⁻¹ s⁻¹]
1 | BPC1108 (bispecific antibody, human IgG1, kappa, mAbdAb; dAb Kabat 89 C; also called 829H-(TVAAPS)2GS-154 (89C)) heavy: not shown light: DIVMTQSPLSLPVTPGEPASISCRSSQNIVHINGNTYLEWYLQKPGQSPRLLIYKISDRFSGVPDRFSGSGSGTDFTLKISRVEADDVGIYYCFQGSHVPWTFGQGTKLEIKRTVAAPSVFIFPPSDEQLKSGTASVVCLLNNFYPREAKVQWKVDNALQSGNSQESVTEQDSKDSTYSLSSTLTLSKADYEKHKVYACEVTHQGLSSPVTKSFNRGEC | 0.281 | 0.00123 | 4.38e+06
2 | BPC1110 (bispecific antibody, human IgG1, kappa, mAbdAb; dAb Kabat 89 W; also called 829H-(TVAAPS)2GS-154 (89W)) heavy: not shown light: DIVMTQSPLSLPVTPGEPASISCRSSQNIVHINGNTYLEWYLQKPGQSPRLLIYKISDRFSGVPDRFSGSGSGTDFTLKISRVEADDVGIYYCFQGSHVPWTFGQGTKLEIKRTVAAPSVFIFPPSDEQLKSGTASVVCLLNNFYPREAKVQWKVDNALQSGNSQESVTEQDSKDSTYSLSSTLTLSKADYEKHKVYACEVTHQGLSSPVTKSFNRGEC | 1.63 | 0.00173 | 1.07e+06
3 | BPC1109 (bispecific antibody, human IgG1, kappa, mAbdAb; dAb Kabat 89 R; also called 829H-(TVAAPS)2GS-154 (89R)) heavy: not shown light: DIVMTQSPLSLPVTPGEPASISCRSSQNIVHINGNTYLEWYLQKPGQSPRLLIYKISDRFSGVPDRFSGSGSGTDFTLKISRVEADDVGIYYCFQGSHVPWTFGQGTKLEIKRTVAAPSVFIFPPSDEQLKSGTASVVCLLNNFYPREAKVQWKVDNALQSGNSQESVTEQDSKDSTYSLSSTLTLSKADYEKHKVYACEVTHQGLSSPVTKSFNRGEC | 147 | 0.177 | 1.2e+06

Second part, the binder after the results:

Row | Kd [nM] | koff [s⁻¹] | kon [M⁻¹ s⁻¹] | Binder
4 | 0.231 | 0.000913 | 3.95e+06 | BPC1117 (bispecific antibody, human IgG1, kappa, mAbdAb; dAb Kabat 89 I; also called 829H-(TVAAPS)2GS-154 (89I)) heavy: not shown light: DIVMTQSPLSLPVTPGEPASISCRSSQNIVHINGNTYLEWYLQKPGQSPRLLIYKISDRFSGVPDRFSGSGSGTDFTLKISRVEADDVGIYYCFQGSHVPWTFGQGTKLEIKRTVAAPSVFIFPPSDEQLKSGTASVVCLLNNFYPREAKVQWKVDNALQSGNSQESVTEQDSKDSTYSLSSTLTLSKADYEKHKVYACEVTHQGLSSPVTKSFNRGEC
5 | 0.656 | 0.00255 | 3.89e+06 | BPC1114 (bispecific antibody, human IgG1, kappa, mAbdAb; dAb Kabat 89 N; also called 829H-(TVAAPS)2GS-154 (89N)) heavy: not shown light: DIVMTQSPLSLPVTPGEPASISCRSSQNIVHINGNTYLEWYLQKPGQSPRLLIYKISDRFSGVPDRFSGSGSGTDFTLKISRVEADDVGIYYCFQGSHVPWTFGQGTKLEIKRTVAAPSVFIFPPSDEQLKSGTASVVCLLNNFYPREAKVQWKVDNALQSGNSQESVTEQDSKDSTYSLSSTLTLSKADYEKHKVYACEVTHQGLSSPVTKSFNRGEC
6 | 0.405 | 0.00258 | 6.39e+06 | BPC1118 (bispecific antibody, human IgG1, kappa, mAbdAb; dAb Kabat 89 F; also called 829H-(TVAAPS)2GS-154 (89F)) heavy: not shown light: DIVMTQSPLSLPVTPGEPASISCRSSQNIVHINGNTYLEWYLQKPGQSPRLLIYKISDRFSGVPDRFSGSGSGTDFTLKISRVEADDVGIYYCFQGSHVPWTFGQGTKLEIKRTVAAPSVFIFPPSDEQLKSGTASVVCLLNNFYPREAKVQWKVDNALQSGNSQESVTEQDSKDSTYSLSSTLTLSKADYEKHKVYACEVTHQGLSSPVTKSFNRGEC
7 | 0.402 | 0.00274 | 6.82e+06 | BPC1116 (bispecific antibody, human IgG1, kappa, mAbdAb; dAb Kabat 89 V; also called 829H-(TVAAPS)2GS-154 (89V)) heavy: not shown light: DIVMTQSPLSLPVTPGEPASISCRSSQNIVHINGNTYLEWYLQKPGQSPRLLIYKISDRFSGVPDRFSGSGSGTDFTLKISRVEADDVGIYYCFQGSHVPWTFGQGTKLEIKRTVAAPSVFIFPPSDEQLKSGTASVVCLLNNFYPREAKVQWKVDNALQSGNSQESVTEQDSKDSTYSLSSTLTLSKADYEKHKVYACEVTHQGLSSPVTKSFNRGEC
